Measured values: patent US11180767B2, “Protease deficient filamentous fungal cells and methods of use thereof” (GLYKOS FINLAND OY, priority 2012, dated 2021)

Assays:
MAB01 heavy chain = assay: Antibody degradation by Pichia-expressed T. reesei proteases (MAB01); type: biochemical
Protocol: The T. reesei aspartic proteases pep3 (tre121133) and pep7 (tre58669) expressed from Pichia were also tested in vitro, by measuring the degradation of the MAB01 antibody and IGF-1. Degradation of MAB01 and IGF-1 by pep3 and pep7 was analyzed by immunoblotting. The aspartic proteases were produced in Pichia supernatants. Pichia supernatants were diluted to 1× concentration, and then mixed with 50 mM sodium citrate buffer, pH 5.5. MAB01 was added to each reaction so that the final concentration would be 0.05 μg IGF-1 was added to each reaction so that the final concentration would be 0.30 μg μl. Ten microliters of each reaction mixture was then sampled and added to 3 μl of Laemmli sample buffer with β-mercaptoethanol. The samples were heated at 95° C. for 5 minutes before being loaded into a 4-15% PAGE gel (BioRad mini-protean TGX precast gel) along with an all blue precision plus prestained molecular weight marker (BioRad). The PAGE gel was run for 30 minutes at 200V. The proteins in the gel were then electrotransferred into a nitrocellulose filter at 100V for 1 hour. The protein containing nitrocellulose filter was then blocked with 5% milk powder in Tris buffered saline with 0.1% tween (TBST) for 1 hour shaking at room temperature. The blocked membranes were then probed with antibody. The MAB01 containing membranes were probed with an anti-IgG heavy chain antibody AP conjugate (Sigma #A3188) diluted 1:30,000 in TBST. The IGF-1 samples were analyzed using a primary anti-IGF-1 antibody (1:2000 in TBST) and anti-IgG AP conjugated secondary antibody (1:5000 in TBST). All antibody incubations were done for 1 hour at room temperature on a shaker. The membranes were then washed with 3 changes of TBST for 20 minutes each on the shaker. The membranes were developed with the BCIP/NBT alkaline phosphatase substrate (Promega #S3771) for up to 5 minutes.
Pichia supernatants containing Trichoderma reesei gap2 were also studied in vitro. The gap2 containing supernatant and MAB01 antibody were diluted into sodium citrate buffers adjusted to pH 4.0, 4.5, 5.0, and 5.5, and incubated for 20 hours at 37° C. Samples were taken at 0 minutes and after 20 hours. MAB01 heavy chain production was analyzed by immunoblotting using an anti-IgG heavy chain (Sigma #A3188) antibody AP conjugate.
(§1) The Trichoderma reesei subtilisin proteases slp5, slp6, and slp7 were overproduced in Pichia supernatants for investigation of their activity against the antibody rituximab and MAB01 heavy chains (FIG. 25). The rituximan mock supernatant was compared to supernatants containing slp5 and slp6 (FIG. 25 A). The MAB01 mock supernatant was compared to supernatants containing slp7 (FIG. 25B). Rituximab and MAB01 were added to the protease-containing Pichia supernatants and incubated overnight at 37° C. Samples were taken and analyzed by immunoblotting with an anti-heavy chain AP conjugated antibody.

rituximab heavy chain = assay: Antibody degradation by Pichia-expressed T. reesei proteases (rituximab); type: biochemical; settings: overnight 37°C
Protocol: as §1

[1] = pH 5.5, 37°C, overnight/20 hours

B1: pep3: T. reesei aspartic protease tre121133 expressed from Pichia (protein, listed as Trichoderma reesei)
chain: MEAILQAQAKFRLDRGLQKITAVRNKNYKRHGPKSYVYLLNRFGFEPTKPGPYFQQHRIHQRGLAHPDFKAAVGGRVTRQKVLAKKVKEDGTVDAGGSKTGEVDAEDQQNDSEYLCEVTIGTPGQKLMLDFDTGSSDLWVFSTELSKHLQENHAIFDPKKSSTFKPLKDQTWQISYGDGSSASGTCGSDTVTLGGLSIKNQTIELASKLAPQFAQGTGDGLLGLAWPQINTVQTDGRPTPANTPVANMIQQDDIPSDAQLFTAAFYSERDENAESFYTFGYIDQDLVSASGQEIAWTDVDNSQGFWMFPSTKTTINGKDISQEGNTAIADTGTTLALVSDEVCEALYKAIPGAKYDDNQQGYVFPINTDASSLPELKVSVGNTQFVIQPEDLAFAPADDSNWYGGVQSRGSNPFDILGDVFLKSVYAIFDQGNQRFGAVPKIQAKQNLQPPQ
MAB01 degrading activity (MAB01 heavy chain; pH 4.5, 37°C, overnight): higher
MAB01 degrading activity (MAB01 heavy chain; [1]): low MAB01 degrading activity

B2: pep7: T. reesei aspartic protease tre58669 expressed from Pichia (protein, listed as Trichoderma reesei)
chain: MTLPVPLREHDLPFLKEKRKLPADDIPSGTYTLPIIHARRPKLASRAIEVQVENRSDVSYYAQLNIGTPPQTVYAQIDTGSFELWVNPNCSNVQSADQRFCRAIGFYDPSSSSTADVTSQSARLRYGIGSADVTYVHDTISLPGSGSGSKAMKAVQFGVADTSVDEFSGILGLGAGNGINTEYPNFVDELAAQGVTATKAFSLALGSKAEEEGVIIFGGVDTAKFHGELAHLPIVPADDSPDGVARYWVKMKSISLTPPPPSSSGSTDDNNNKPVAFPQTSMTVFLDSGSTLTLLPPALVRQIASALGSTQTDESGFFVVDCALASQDGTIDFEFDGVTIRVPYAEMIRQVSTLPPHCYLGMMGSTQFALLGDTFLRSAYAVFDLTSNVVHLAPYANCGTNVKSITSTSSLSNLVGTCNDPSKPSSSPSPSQTPSASPSSTATQKA
MAB01 degrading activity (MAB01 heavy chain; pH 4.5, 37°C, overnight): minimal antibody degrading activity

B3: gap2: T. reesei glutamic protease tre106661 in Pichia supernatant (protein, listed as Trichoderma reesei)
chain: MDAIRARSAARRSNRFQAGSSKNVNGTADVESTNWAGAAITTSGVTEVSGTFTVPRPSVPAGGSSREEYCGAAWVGIDGYSDADLIQTGVLWCVEDGEYLYEAWYEYLPAALVEYSGISVTAGSVVTVTATKTGTNSGVTTLTSGGKTVSHTFSRQNSPLPGTSAEWIVEDFTSGSSLVPFADFGSVTFTGATAVVNGATVTAGGDSPVIIDLEDSRGDILTSTTVSGSTVTVEYE
proteolytic activity against heavy chain MAB01 (MAB01 heavy chain; pH 4.0, 37°C, 20 hours): maximal proteolytic activity
MAB01 degrading activity (MAB01 heavy chain; [1]): low

B4: slp6: T. reesei subtilisin protease overproduced in Pichia supernatant (protein, listed as Trichoderma reesei)
chain: MASLRRLALYLGALLPAVLAAPAVNYKLPEAVPNKFIVTLKDGASVDTDSHLTWVKDLHRRSLGKRSTAGVEKTYNIDSWNAYAGEFDEETVKQIKANPDVASVEPDYIMWLSDIVEDKRALTTQTGAPWGLGTVSHRTPGSTSYIYDTSAGSGTFAYVVDSGINIAHQQFGGRASLGYNAAGGDHVDTLGHGTHVSGTIGGSTYGVAKQASLISVKVFQGNSASTSVILDGYNWAVNDIVSRNRASKSAINMSLGGPASSTWATAINAAFNKGVLTIVAAGNGDALGNPQPVSSTSPANVPNAITVAALDINWRTASFTNYGAGVDVFAPGVNILSSWIGSNTATNTISGTSMATPHVVGLALYLQALEGLSTPTAVTNRIKALATTGRVTGSLNGSPNTLIFNGNSA
degradation of MAB01 heavy chain vs mock supernatant (MAB01 heavy chain; Pichia supernatant, overnight 37°C): light degradation
degradation of rituximab heavy chain vs mock supernatant (rituximab heavy chain): heavy degradation activity
